The values that follow come from paper PMC2857867 (The FASEB Journal, 2010).

B1: mIL-28A (ligand)
chain: DPVPRATRLPVEAKDCHIAQFKSLSPKELQAFKKAKDAIEKRLLEKDLRCSSHLFPRAWDLKQLQVQERPKALQAEVALTLKVWENMTDSALATILGQPLHTLSHIHSQLQTCTQLQATAEPRSPSRRLSRWLHRLQEAQSKETPGCLEASVTSNLFRLLTRDLKCVANGDQCV
B2: hIL-28A (ligand)
chain: VPVARLHGALPDARGCHIAQFKSLSPQELQAFKRAKDALEESLLLKDCRCHSRLFPRTWDLRQLQVRERPMALEAELALTLKVLEATADTDPALVDVLDQPLHTLHHILSQFRACIQPQPTAGPRTRGRLHHWLYRLQEAPKKESPGCLEASVTFNLFRLLTRDLNCVASGDLCV
B3: mIFNα-A (ligand)
chain: CDLPHTYNLRNKRALKVLAQMRRLPFLSCLKDRQDFGFPLEKVDNQQIQKAQAIPVLRDLTQQTLNLFTSKASSAAWNATLLDSFCNDLHQQLNDLQTCLMQQVGVQEPPLTQEDALLAVRKYFHRITVYLREKKHSPCAWEVVRAEVWRALSSSVNLLPRLSEEKE
B4: mIFNβ (ligand)
chain: INYKQLQLQERTNIRKCQELLEQLNGKINLTYRADFKIPMEMTEKMQKSYTAFAIQEMLQNVFLVFRNNFSSTGWNETIVVRLLDELHQQTVFLKTVLEEKQEERLTWEMSSTALHLKSYYWRVQRYLKLMKYNSYAWMVVRAEIFRNFLIIRRLTRNFQN
B5: mIL-10 (ligand)
chain: SRGQYSREDNNCTHFPVGQSHMLLELRTAFSQVKTFFQTKDQLDNILLTDSLMQDFKGYLGCQALSEMIQFYLVEVMPQAEKHGPEIKEHLNSLGEKLKTLRMRLRRCHRFLPCENKSKAVEQVKSDFNKLQDQGVYKAMNEFDIFINCIEAYMMIKMKS

The first test deals with T1, VACV strain WR IFNα/βBP B18 (vaccinia virus strain Western Reserve, UniProt P25213 20-351). The test is described as follows: SPR. In general terms: In SPR one partner is held on a chip, and binding of the other changes the refractive index at the surface.
What is called Kd is the constant that tells how readily two partners part at equilibrium. Read a high Kd as weaker binding. One may read the koff as the first-order rate constant of dissociation. Read a high koff as a short-lived complex. By kon is commonly meant the rate constant with which the complex forms. Molecule B1 returned a Kd of 13.4 nM, a koff of 0.0112 s⁻¹ and a kon of 832000 M⁻¹ s⁻¹.

Regarding B2, binding was characterised by a dissociation constant (Kd) of 14.9 nM, the koff was 0.00364 s⁻¹ and the kon came to 245000 M⁻¹ s⁻¹.

In turn, B3 gave a Kd of 0.455 nM, a dissociation rate constant (koff) of 0.000784 s⁻¹ and a kon of 1.72e+06 M⁻¹ s⁻¹.

B4 gave a Kd of 3.2 nM, a koff of 0.000333 s⁻¹ and a kon of 104000 M⁻¹ s⁻¹.

In another test the target is T1, VACV strain WR IFNα/βBP B18. The test is described as follows: SPR. This is another data set of the same source.
B5: the binding result is listed as “binds”.
